B1: PhaC2 (PHA polymerase 2), granule-bound (Ectopseudomonas oleovorans) (protein)
chain: MKDKPAKGTPTLPATSMNVQNAILGLRGRDLISTLRNVSRQSLRHPLHTAHHLLALGGQLGRVILGDTPLQPNPRDPRFSDPTWSQNPFYRRGLQAYLAWQKQTRLWIEESHLDDDDRARAHFLFNLINDALAPSNSLLNPLAVKELFNSGGQSLVRGVAHLLDDLRHNDGLPRQVDERAFEVGGNLAATAGAVVFRNELLELIQYKPMSEKQHARPLLVVPPQINKFYIFDLSSTNSFVQYMLKNGLQVFMVSWRNPDPRHREWGLSSYVQALEEALNACRSISGNRDPNLMGACAGGLTMAALQGHLQAKHQLRRVRSATYLVSLLDSKFESPASLFADEQTIEAAKRRSYQRGVLDGAEVARIFAWMRPNDLIWNYWVNNYLLGKTPPAFDILYWNADSTRLPAALHGDLLDFFKLNPLTHPAGLEVCGTPIDLQKVELDSFTVAGSNDHITPWDAVYRSALLLGGDRRFVLANSGHIQSIINPPGNPKAYYLANPKLSSDPRAWLHDAKRSEGSWWPLWLEWITARSGPLKAPRSELGNATYPPLGPAPGTYVLTR
notes: overexpressed from pGEc404 in PHA-negative P. putida GPp104; assayed on isolated PHA granules (other granule proteins present)
B2: PhaC1 (PHA polymerase 1), granule-bound (Ectopseudomonas oleovorans) (protein)
chain: MSNKNNDELQRQASENTLGLNPVIGIRRKDLLSSARTVLRQAVRQPLHSAKHVAHFGLELKNVLLGKSSLAPESDDRRFNDPAWSNNPLYRRYLQTYLAWRKELQDWIGNSDLSPQDISRGQFVINLMTEAMAPTNTLSNPAAVKRFFETGGKSLLDGLSNLAKDLVNNGGMPSQVNMDAFEVGKNLGTSEGAVVYRNDVLELIQYKPITEQVHARPLLVVPPQINKFYVFDLSPEKSLARYCLRSQQQTFIISWRNPTKAQREWGLSTYIDALKEAVDAVLAITGSKDLNMLGACSGGITCTALVGHYAALGENKVNALTLLVSVLDTTMDNQVALFVDEQTLEAAKRHSYQAGVLEGSEMAKVFAWMRPNDLIWNYWVNNYLLGNEPPVFDILFWNNDTTRLPAAFHGDLIEMFKSNPLTRPDALEVCGTPIDLKQVKCDIYSLAGTNDHITPWQSCYRSAHLFGGKIEFVLSNSGHIQSILNPPGNPKARFMTGADRPGDPVAWQENATKHADSWWLHWQSWLGERAGELEKAPTRLGNRAYAAGEASPGTYVHER
notes: overexpressed from pGEc405 in PHA-negative P. putida GPp104; assayed on isolated PHA granules (other granule proteins present)

Substrate: CCCCC[C@@H](O)CC(=O)SCCNC(=O)CCNC(=O)[C@H](O)C(C)(C)COP(=O)(O)OP(=O)(O)OC[C@H]1O[C@@H](n2cnc3c(N)ncnc32)[C@H](O)[C@@H]1OP(=O)(O)O
Assay: cells, lysate or membranes
Type: biochemical, Ectopseudomonas oleovorans
Details: granule-bound enzyme (isolated PHA granules), 100 mM Tris-HCl pH 8, 1 mg/ml BSA, 0.5 mM MgCl2, substrate 0.0375-0.25 mM

Row | Protein | Km [µM]
1 | B1 | 37 ± 10
2 | B2 | 125 ± 35

Source: publication PMC2788523, “Overexpression and characterization of medium-chain-length polyhydroxyalkanoate granule bound polymerases from Pseudomonas putida GPo1” (Microbial Cell Factories, 2009)
